B1: Kremen1 (Krm1), full length, Flag-tagged or HA-tagged (receptor, UniProt Q99N43 20-473, looked up)
chain: ARPAPGPRSGPECFTANGADYRGTQSWTALQGGKPCLFWNETFQHPYNTLKYPNGEGGLGEHNYCRNPDGDVSPWCYVAEHEDGVYWKYCEIPACQMPGNLGCYKDHGNPPPLTGTSKTSNKLTIQTCISFCRSQRFKFAGMESGYACFCGNNPDYWKHGEAASTECNSVCFGDHTQPCGGDGRIILFDTLVGACGGNYSAMAAVVYSPDFPDTYATGRVCYWTIRVPGASRIHFNFTLFDIRDSADMVELLDGYTHRVLVRLSGRSRPPLSFNVSLDFVILYFFSDRINQAQGFAVLYQATKEEPPQERPAVNQTLAEVITEQANLSVSAAHSSKVLYVITPSPSHPPQTAPGSHSWAPSVGANSHRVEGWTVYGLATLLILTVTAVVAKILLHVTFKSHRVPASGDLRDCRQPGASGDIWTIFYEPSTTISIFKKKLKGQSQQDDRNPLVSD
notes: Kremen1 (Krm1), transmembrane receptor, full length; Two differently tagged copies of the same full-length protein (Flag-Krm1, HA-Krm1), each with ONE tag, written as one molecule for the self-association; In rows with truncated Krm1 or with Krm2 the Flag-tagged copy is the bait; Vector pCAG-IRES-EGFP or pCS2; also called Flag-Krm1; HA-Krm1; source: HEK293T, transfected, in lysate; not shown: …
B2: HA-Krm1secECD, secreted ectodomain of Krm1 (lacks the transmembrane and intracellular domains) (domain or fragment, UniProt Q99N43 21-392, looked up)
chain: RPAPGPRSGPECFTANGADYRGTQSWTALQGGKPCLFWNETFQHPYNTLKYPNGEGGLGEHNYCRNPDGDVSPWCYVAEHEDGVYWKYCEIPACQMPGNLGCYKDHGNPPPLTGTSKTSNKLTIQTCISFCRSQRFKFAGMESGYACFCGNNPDYWKHGEAASTECNSVCFGDHTQPCGGDGRIILFDTLVGACGGNYSAMAAVVYSPDFPDTYATGRVCYWTIRVPGASRIHFNFTLFDIRDSADMVELLDGYTHRVLVRLSGRSRPPLSFNVSLDFVILYFFSDRINQAQGFAVLYQATKEEPPQERPAVNQTLAEVITEQANLSVSAAHSSKVLYVITPSPSHPPQTAPGSHSWAPSVGANSHRVEGWT

Data set [1] deals with the molecule itself. Description: cross-linking; HEK293T cells transfected with HA-Krm1 and Flag-Krm1, 0.2 mM BS3 (non cell-permeant) on ice for 30 min prior to lysis; straight western blots and anti-Flag immunoprecipitation with anti-HA blot. (In general: A western blot detects proteins with antibodies after separation by electrophoresis.)
Data set [2] deals with B1. Nature of the data set: cell-based or functional assay.

Turning to B1, in data set [1], the stoichiometry N (usually a count of units in the complex or per binding partner) amounted to 2.

For B2, the “proportion of cleaved Caspase-3+ cells among HA+ HEK293T cells transfected with HA-Krm1 and either GFP or Krm1secECD; the pair interfered with is Krm1 with Krm1 (dimerization)” value in data set [2] turned out to be 2 fold decrease.
